{"source": "paper PMC3258524", "about": "“Regulation of the human tyrosinase gene in retinal pigment epithelium cells: the significance of transcription factor orthodenticle homeobox 2 and its polymorphic binding site” (Molecular Vision, 2012)", "binders": {"B1": {"name": "full-length OTX2 (orthodenticle homeobox 2) (natural protein)", "chain": "not shown"}}, "key": {"[1]": {"target": "T1, full-length MITF-A (microphthalmia-associated transcription factor, isoform A) (UniProt O75030-2 1-520)", "T1 sequence (looked up)": "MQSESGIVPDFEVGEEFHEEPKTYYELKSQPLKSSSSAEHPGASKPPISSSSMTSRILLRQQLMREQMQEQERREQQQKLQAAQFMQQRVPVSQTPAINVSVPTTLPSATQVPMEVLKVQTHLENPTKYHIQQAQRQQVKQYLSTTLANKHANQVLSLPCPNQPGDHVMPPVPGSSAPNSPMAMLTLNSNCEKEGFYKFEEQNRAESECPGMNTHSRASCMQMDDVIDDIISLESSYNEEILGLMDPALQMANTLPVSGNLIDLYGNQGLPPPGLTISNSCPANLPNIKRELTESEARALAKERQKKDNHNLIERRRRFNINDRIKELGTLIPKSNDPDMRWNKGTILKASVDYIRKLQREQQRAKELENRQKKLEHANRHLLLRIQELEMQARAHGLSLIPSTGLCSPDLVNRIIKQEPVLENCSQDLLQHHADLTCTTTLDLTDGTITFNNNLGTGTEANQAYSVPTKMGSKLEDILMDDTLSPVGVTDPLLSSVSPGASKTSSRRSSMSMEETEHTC", "experiment": "cell-based or functional assay"}, "[2]": {"target": "T2, full-length MITF-M (microphthalmia-associated transcription factor, isoform M) (UniProt O75030-9 1-419)", "T2 sequence (looked up)": "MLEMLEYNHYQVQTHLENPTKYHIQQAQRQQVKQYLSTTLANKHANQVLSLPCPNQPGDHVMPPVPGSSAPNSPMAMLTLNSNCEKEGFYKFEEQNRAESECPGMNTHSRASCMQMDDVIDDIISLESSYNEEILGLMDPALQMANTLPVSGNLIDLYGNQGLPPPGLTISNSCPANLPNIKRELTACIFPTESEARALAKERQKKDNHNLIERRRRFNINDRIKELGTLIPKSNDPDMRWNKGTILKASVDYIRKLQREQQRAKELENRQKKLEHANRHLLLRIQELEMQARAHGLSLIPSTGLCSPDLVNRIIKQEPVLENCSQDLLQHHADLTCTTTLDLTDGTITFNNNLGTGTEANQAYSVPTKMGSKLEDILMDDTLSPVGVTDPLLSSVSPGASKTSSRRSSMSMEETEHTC", "experiment": "cell-based or functional assay"}}, "data": [{"binder": "B1", "values": [{"measurement": "luciferase reporter driven by the human TYR promoter construct -152 (MITF sites, no OTX2 sites) in ARPE-19 cells cotransfected with MITF-A and OTX2; activation relative to the empty vector", "setting": "[1]", "result": 20, "unit": "fold"}, {"measurement": "luciferase reporter driven by the human TYR promoter construct -152 (MITF sites, no OTX2 sites) in ARPE-19 cells cotransfected with MITF-M and OTX2; synergism compared with that of MITF-A and OTX2", "setting": "[2]", "result": "~1.7 fold (against MITF-A)"}]}]}
